Source: US20210347894A1 (JIANGSU HANSOH PHARMACEUTICAL GROUP, published 2021)

Experiments:
[1] = target: T1, human 4Ig-B7H3 antigen (SinoBiological cat#11188-H08H) (human, UniProt Q5ZPR3 29-461); test: SPR (Biacore T200), antibody captured on Protein A chip, antigen flowed over, 1:1 Langmuir fit
T1 construct: Commercial product; The entry as printed is the B7H3 extracellular region (4Ig form) followed by a His-tag; also called Human 41g-B7H3; human B7H3 antigen for detection
T1 sequence: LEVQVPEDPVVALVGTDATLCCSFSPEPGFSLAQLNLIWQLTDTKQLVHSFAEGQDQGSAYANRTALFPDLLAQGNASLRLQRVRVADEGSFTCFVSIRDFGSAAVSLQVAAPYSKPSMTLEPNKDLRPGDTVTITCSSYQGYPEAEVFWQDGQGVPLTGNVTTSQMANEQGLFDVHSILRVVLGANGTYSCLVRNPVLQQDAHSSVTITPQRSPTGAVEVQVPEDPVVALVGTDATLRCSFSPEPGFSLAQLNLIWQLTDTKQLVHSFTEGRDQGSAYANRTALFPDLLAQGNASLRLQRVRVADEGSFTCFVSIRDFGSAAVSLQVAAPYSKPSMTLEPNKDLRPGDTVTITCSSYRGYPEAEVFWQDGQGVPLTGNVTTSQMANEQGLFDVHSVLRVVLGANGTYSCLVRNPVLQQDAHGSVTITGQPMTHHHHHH
From the text: (§1) A biosensor chip Protein A (Cat.#29127556, GE) was used to affinity capture a certain amount of antibody/ADC to be tested. Series diluted human 2Ig-B7H3 antigen (Cat.#1949-B3-050/CF, R&D) and human 4Ig-B7H3 antigen (Cat.#11188-H08H, Sino Biological) were flowed through the surface of the chip. Real-time reaction signal was detected by using Biacore instrument (Biacore T200, GE) to obtain the association and dissociation curves. After completion of each cycle of dissociation, the biochip was washed and regenerated with glycine-hydrochloric acid regeneration solution (pH 1.5) (Cat.# BR-1003-54, GE). The buffer used in the experiment was HBS-EP buffer solution (pH 7.4) (Cat.# BR-1001-88, GE).
(§2) The experimental data was fitted with BIAevaluation version 4.1 GE software in a (1:1) Langmuir model to obtain affinity values.

[2] = target: T2, human 2Ig-B7H3 antigen (R&D cat#1949-B3-050/CF) (human, UniProt Q5ZPR3 29-245); test: as above
T2 construct: Commercial product; The entry as printed is the B7H3 extracellular region (2Ig form) followed by a His-tag; also called human B7H3 antigen for screening and detection
T2 sequence: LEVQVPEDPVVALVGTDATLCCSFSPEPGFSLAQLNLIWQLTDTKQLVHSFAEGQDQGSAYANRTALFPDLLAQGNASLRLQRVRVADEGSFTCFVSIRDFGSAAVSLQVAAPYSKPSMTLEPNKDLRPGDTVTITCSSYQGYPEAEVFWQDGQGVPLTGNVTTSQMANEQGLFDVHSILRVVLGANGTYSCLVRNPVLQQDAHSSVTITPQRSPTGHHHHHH
From the text: as §1, §2

[3] = target: T1, human 4Ig-B7H3 antigen (SinoBiological …); test: SPR (Biacore T200), ADC captured on Protein A chip, antigen flowed over, 1:1 Langmuir fit
From the text: as §1, §2

B1: h1702 antibody (antibody, human IgG1, lambda)
heavy: not shown
light: QTVVTQEPSFSVSPGGTVTLTCGLSSGSVSTSHYPSWYQQTPGQAPRMLIYNTNTRSSGVPDRFSGSILGNKAALTITGAQADDESDYYCAIHVDRDIWVFGGGTKLTVLGQPKANPTVTLFPPSSEELQANKATLVCLISDFYPGAVTVAWKADGSPVKAGVETTKPSKQSNNKYAASSYLSLTPEQWKSHRSYSCQVTHEGSTVEKTVAPTECS
notes: Fully human IgG1/lambda full-length antibody from a phage library, expressed in HEK293E cells; also called B7H3 antibody h1702; anti-B7H3 antibody
B1 gave a Kd [1] of 8.55 nM and a Kd [2] of 797 nM.

B2: ADC-2 (antibody 1702DS conjugated with compound 5-A, formula FADC-2, n=7.24) (antibody, human IgG1, lambda)
heavy: not shown
light: DTVVTQEPSFSVSPGGTVTLTCGLSSGSVSTSHYPSWYQQTPGQAPRMLIYNTNTRSSGVPDRFSGSILGNKAALTITGAQADDESDYYCAIHVDRDIWVFGGGTKLTVLGQPKANPTVTLFPPSSEELQANKATLVCLISDFYPGAVTVAWKADGSPVKAGVETTKPSKQSNNKYAASSYLSLTPEQWKSHRSYSCQVTHEGSTVEKTVAPTEC
modifications: linker-drug compound 5-A (maleimide-GGFG-exatecan analog) coupled after TCEP reduction of the antibody's disulfide bonds; average n=7.24 per antibody; positions not given
notes: Antibody-drug conjugate; also called B7H3-ADC
B2 was tested, and the Kd [3] was 7.55 nM.
